One substance from patent US4835253A, “Specific inhibitors of tissue kallikrein” (The University Hospital, priority 1987, dated 1989) can be followed below.

What all share (format): biochemical, human
Data set [1] concerns T1, NCCCC[C@H](NC(=O)[C@H](CC1CCCCC1)NC(=O)[C@H](N)c1ccccc1)C(=O)Nc1ccc([N+](=O)[O-])cc1.
T1 construct: Human urinary kallikrein (hereinafter "HUK") was highly purified using a modification of published methods; from tissue; host or cells: human urine
The data set is described as follows: Km and Vmax of tripeptide 4-nitroanilides with HUK. Particulars: other: tripeptide 4-nitroanilide as HUK substrate; pH 9.0; 37.0 °C. The text has this: (§1) An evaluation of other possible peptide sequences and their potential effect as substrate analogue inhibitors specifically of tissue kallikrein was undertaken using chromogenic substrates comprising alternate series of tripeptide 4-nitroanilides using previously described methods [Amundsen et al., "Methods For The Determination Of Glandular Kallikrein By Means Of A Chromogenic Tripeptide Substrate," in Kinins-II. Part A. Plenum Press, 1979, pages 83-95]. This methodology relies on the capacity of HUK to cleave p-nitroaniline from specifically synthesized tripeptide 4-nitroanilines. Controls for this experimental series included S-2266 comprising D-Val-Leu-Arg-4NA; S-2444 comprising D-Glu-Gly-Arg-4NA; and S-2302 comprising D-Pro-Phe-Arg-4NA respectively. The 50% inhibitory concentration (IC50) values for each synthesized tripeptide 4-nitroanilide was determined at 37 C. at pH 9.0 using the specific kallikrein substrates S-2266 (Kabi, Helena Laboratories, Beaumont, Tex.). 4.0 nanograms (hereinafter "ng") of HUK were used in each sample. Blanks lacking S-2266 were run in parallel to correct for hydrolysis of all samples. In all cases, the amount of 4-nitroaniline generated from each tripeptide was less than 10% of that observed for the hydrolysis of S-2266.
(§2) Subsequently, the Km and Vmax for each test tripeptide 4-nitroanilide was determined using conventional techniques in an HP-8450 diode array spectrophotometer (Hewlett Packard Company) attached to a HP-85 microcomputer. The multicomponent assay program was modified to allow the simultaneous determination of the reaction velocity in four samples.

Data set [2] relates to T2, CC[C@H](C)[C@H](N)C(=O)N[C@@H](CC1CCCCC1)C(=O)N[C@@H](CCCNC(=N)N)C(=O)Nc1ccc([N+](=O)[O-])cc1.
T2 construct: Human urinary kallikrein (hereinafter "HUK") was highly purified using a modification of published methods; from tissue; host or cells: human urine
The data set is described as follows: Km and Vmax of tripeptide 4-nitroanilides with HUK. Particulars: other: tripeptide 4-nitroanilide as HUK substrate; pH 9.0; 37.0 °C.
Excerpt: as §1, §2

Data set [3] relates to T3, N=C(N)NCCC[C@H](NC(=O)[C@H](CC1CCCCC1)NC(=O)[C@H](N)c1ccccc1)C(=O)Nc1ccc([N+](=O)[O-])cc1.
T3 construct: Human urinary kallikrein (hereinafter "HUK") was highly purified using a modification of published methods; from tissue; host or cells: human urine
Description: Km and Vmax of tripeptide 4-nitroanilides with HUK. Particulars: other: tripeptide 4-nitroanilide as HUK substrate; pH 9.0; 37.0 °C.
Excerpt: as §1, §2

Data set [4] deals with T4, NCCCC[C@H](NC(=O)[C@H](CC1CCCCC1)NC(=O)[C@H](N)C1CCCCC1)C(=O)Nc1ccc([N+](=O)[O-])cc1.
T4 construct: Human urinary kallikrein (hereinafter "HUK") was highly purified using a modification of published methods; from tissue; host or cells: human urine
Description: Km and Vmax of tripeptide 4-nitroanilides with HUK. Particulars: other: tripeptide 4-nitroanilide as HUK substrate; pH 9.0; 37.0 °C.
Excerpt: as §1, §2

The test system of data set [5] is T5, N=C(N)NCCC[C@H](NC(=O)[C@H](Cc1ccccc1)NC(=O)[C@H](N)C1CCCCC1)C(=O)Nc1ccc([N+](=O)[O-])cc1.
T5 construct: Human urinary kallikrein (hereinafter "HUK") was highly purified using a modification of published methods; from tissue; host or cells: human urine
The data set is described as follows: Km and Vmax of tripeptide 4-nitroanilides with HUK. Particulars: other: tripeptide 4-nitroanilide as HUK substrate; pH 9.0; 37.0 °C.
Excerpt: as §1, §2

Data set [6] concerns T6, N=C(N)NCCC[C@H](NC(=O)[C@H](CC1CCCCC1)NC(=O)[C@@H](N)C1CCCCC1)C(=O)Nc1ccc([N+](=O)[O-])cc1.
T6 construct: Human urinary kallikrein (hereinafter "HUK") was highly purified using a modification of published methods; from tissue; host or cells: human urine
Description: Km and Vmax of tripeptide 4-nitroanilides with HUK. Particulars: other: tripeptide 4-nitroanilide as HUK substrate; pH 9.0; 37.0 °C.
Excerpt: as §1, §2

Data set [7] concerns T7, CC(=O)N[C@@H](CO)C(=O)N1CCC[C@H]1C(=O)N[C@@H](Cc1ccccc1)C(=O)N[C@@H](CCCNC(=N)N)C(=O)N[C@@H](CO)C(=O)N[C@H](C(=O)N[C@@H](CCC(N)=O)C(N)=O)C(C)C.
T7 construct: Human urinary kallikrein (hereinafter "HUK") was highly purified using a modification of published methods; from tissue; host or cells: human urine
The data set is described as follows: KM determination: hydrolysis of substrate analogues by HUK (HPLC, scintillation counting). Particulars: other: hydrolysis by HUK, pH 9.0, 37 C, thirty minutes. Here is the method:
(§3) Human urinary kallikrein (hereinafter "HUK") was highly purified using a modification of published methods that employ ultrafiltration, aprotinin-CH-sepharose affinity chromatography, and Sephadex G-100 gel filtration [ole-MoiYoi et al., Proc. Natl. Acad. Sci. USA 76: 3121-3125 (1979)]. […] The pH of each fraction was determined immediately upon elution, and the fraction was neutralized by addition of 2.0 ml of 2M Tris-HCL buffer (pH 8.0).
(§4) KM Determination: Hydrolysis of the substrate analogue inhibitors by HUK was measured by combining the test inhibitor at different concentrations on either side of the KM value with the enzyme at pH 9.0 for thirty minutes at 37 C. The cleavage products were separated from the starting material in the digest by HPLC on a Beckman octadecylsilane (ODS) column (1×25 cm) using a thirty minute gradient of from 0-70% CH3 CN in triethylammonium phosphate buffer (pH 7.0). The starting materials and reaction products were completely resolved under these conditions. Absorbance of the HPLC effluent was monitored at 220 nm. Individual fractions were collected and the amount of peptide degradation products was quantitated by counting in a liquid scintillation counter. Samples containing individual inhibitors were incubated without HUK and solvent blanks were also chromatographed and analyzed in the same way.
(§5) For test purposes, in these HUA cleavage studies, individual peptide sequences were synthesized, purified, and characterized as previously described herein. For these cleavage studies, doubly labelled peptides were prepared using [^3 H]-valine and […] respectively. In addition, 6.0N HCL-dioxane was used for removal of tert-butoxycarbonyl protecting groups and 90% hydrogen fluoride/10% anisole (volume/volume) for global deprotection on completion of the synthesis. After extraction and gel filtration on Sephadex G-15, final purification was completed by isocratic elution from a synchrom RP-P column (2.1×25 cm) with CH3 CN--H2 O (8 ml/min). The resultant peptides were deemed to be homogeneous by amino acid analysis; high performance liquid chromatography; thin layer chromatography; and A230 /A260 ratio analysis. […]

The subject of data set [8] is T8, CC(=O)N[C@@H](Cc1ccccc1)C(=O)N[C@@H](CCCN=C(N)N)C(=O)N[C@@H](CO)C(=O)N[C@H](C(=O)N[C@@H](CCC(N)=O)C(N)=O)C(C)C.
T8 construct: Human urinary kallikrein (hereinafter "HUK") was highly purified using a modification of published methods; from tissue; host or cells: human urine
Described as above. Particulars: other: hydrolysis by HUK, pH 9.0, 37 C, thirty minutes. How it is done: as §3, §4, §5

The subject of data set [9] is T9, CC(=O)N1CCC[C@H]1C(=O)N[C@@H](Cc1ccccc1)C(=O)N[C@@H](CCCNC(=N)N)C(=O)N[C@@H](CO)C(=O)N[C@H](C(=O)N[C@@H](CCC(N)=O)C(N)=O)C(C)C.
T9 construct: Human urinary kallikrein (hereinafter "HUK") was highly purified using a modification of published methods; from tissue; host or cells: human urine
Described as above. Particulars: other: hydrolysis by HUK, pH 9.0, 37 C, thirty minutes. Here is the method:
as §3, §4, §5

For Human urinary kallikrein (Homo sapiens), the Km is 48.1 µM in data set [1]; 1.33 µM in [2]; 1.96 µM in [3]; 46.6 µM in [4]; 0.84 µM in [5]; 12.5 µM in data set [6]. Further, the Km in data set [7] is 37.6 µM; in data set [8], 307 µM; in data set [9], 482 µM. Besides, the kcat is reported as 188 mol/mol/sec in data set [8] and 229 mol/mol/sec in [9].
